From patent US12584107B2 (dated 2026)
Changes are numbered by the printed parent chain.

T1: NY-ESO-1 peptide on HLA-A*02:01 (human)
T1 peptide: SLLMWITQC

B1: NY7JSY (TCR, V domains shown)
Valpha: QKEVEQNSGPLSVPEGAIASLNCTYSDRGSQSFFWYRQYSGKSPELIMFIYSNGDKEDGRFTAQLNKASQYVSLLIRDSQPSDSATYLCAVMRAGGFKTIFGAGTRLFVKA
Vbeta: DSGVTQTPKHLITATGQRVTLRCSPRSGDLSVYWYQQSLDQGLQFLIQYYNGEERAKGNILERFSAQQFPDLHSELNLSSLELGDSALYFCASSVVDGEQYFGPGTRLTVT
B2: NY7 variant TCR ID 5 (Table A) (TCR, V domains shown)
Valpha: B1 Valpha with G29W
Vbeta: B1 Vbeta

What was measured:
[1] = target: T1, NY-ESO-1 peptide on HLA-A*02:01; test: multimer staining
[2] = target: T1, NY-ESO-1 peptide on HLA-A*02:01; test: activation reporter or marker

| binding result [1] | binding result [2] | Binder |
| --- | --- | --- |
| recognises | – | B1 |
| – | recognises | B2 |
